T1: CD2BP2129-287 (human, UniProt O95400 129-287)
T1 construct: Yeast two-hybrid prey; vector fusion part not described
T1 sequence: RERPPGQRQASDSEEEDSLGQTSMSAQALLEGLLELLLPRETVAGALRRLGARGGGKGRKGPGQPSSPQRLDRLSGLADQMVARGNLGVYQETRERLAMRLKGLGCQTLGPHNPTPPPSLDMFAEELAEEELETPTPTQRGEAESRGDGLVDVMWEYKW

T2: CD2BP2129-254 (human, UniProt O95400 129-254)
T2 construct: Yeast two-hybrid prey; vector fusion part not described
T2 sequence: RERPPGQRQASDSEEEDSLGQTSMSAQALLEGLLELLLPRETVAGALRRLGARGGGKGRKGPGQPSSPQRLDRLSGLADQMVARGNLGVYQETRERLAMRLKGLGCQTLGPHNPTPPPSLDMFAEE

T3: CD2BP2225-341 (yeast two-hybrid clone) (human, UniProt O95400 225-341)
T3 construct: Yeast two-hybrid prey in pJG4-5; vector fusion part not described
T3 sequence: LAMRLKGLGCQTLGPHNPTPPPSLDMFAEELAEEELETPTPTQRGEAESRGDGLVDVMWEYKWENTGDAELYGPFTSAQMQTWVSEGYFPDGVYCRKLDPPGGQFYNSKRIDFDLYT

T4: CD2 binding protein 2 (CD2BP2) (human, UniProt O95400 1-341, limits assumed)
T4 construct: CD2BP2 as used in the yeast two-hybrid tests against CD2 derivatives (vector pJG4-5)
T4 sequence: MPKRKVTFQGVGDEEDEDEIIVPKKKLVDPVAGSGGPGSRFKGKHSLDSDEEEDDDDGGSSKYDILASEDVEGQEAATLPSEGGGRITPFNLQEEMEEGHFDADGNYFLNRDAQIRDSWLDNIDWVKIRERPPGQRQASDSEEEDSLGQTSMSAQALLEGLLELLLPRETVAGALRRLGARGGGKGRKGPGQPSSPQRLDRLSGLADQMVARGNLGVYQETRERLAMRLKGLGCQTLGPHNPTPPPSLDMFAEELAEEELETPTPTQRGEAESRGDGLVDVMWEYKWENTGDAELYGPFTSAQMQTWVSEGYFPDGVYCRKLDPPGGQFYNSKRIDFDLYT

B1: CD2BP2256-341Δ297-313 (other)
chain: AEEELETPTPTQRGEAESRGDGLVDVMWEYKWENTGDAELYPDGVYCRKLDPPGGQFYNSKRIDFDLYT
notes: Yeast two-hybrid prey; vector fusion part not described; also called deletion clone lacking those 17 residues
B2: CD2 cytoplasmic region (CD2221-327) (receptor, human, UniProt P06729 245-351, looked up)
chain: NDEELETRAHRVATEERGRKPHQIPASTPQNPATSQHPPPPPGHRSQAPSHRPPPPGHRVQHQPQKRPPAPSGTQVHQQKGPPLPRPRVQPKPPHGAAENSLSPSSN
notes: range 221-327; Yeast two-hybrid bait expressed from vector pEG202; also called CD2 cytoplasmic tail; human CD2 cytoplasmic segment amino acids 221-327
B3: CD2221-271 (receptor, human, UniProt P06729 245-295, looked up)
chain: NDEELETRAHRVATEERGRKPHQIPASTPQNPATSQHPPPPPGHRSQAPSH
notes: range 221-271; CD2 cytoplasmic tail truncation mutant for yeast two-hybrid analysis; vector fusion part not described
B4: FLAG-CD2BP2 (other)
chain: DYKDDDDKMPKRKVTFQGVGDEEDEDEIIVPKKKLVDPVAGSGGPGSRFKGKHSLDSDEEEDDDDGGSSKYDILASEDVEGQEAATLPSEGGGRITPFNLQEEMEEGHFDADGNYFLNRDAQIRDSWLDNIDWVKIRERPPGQRQASDSEEEDSLGQTSMSAQALLEGLLELLLPRETVAGALRRLGARGGGKGRKGPGQPSSPQRLDRLSGLADQMVARGNLGVYQETRERLAMRLKGLGCQTLGPHNPTPPPSLDMFAEELAEEELETPTPTQRGEAESRGDGLVDVMWEYKWENTGDAELYGPFTSAQMQTWVSEGYFPDGVYCRKLDPPGGQFYNSKRIDFDLYT
notes: Expressed in COS7 (pcDNA1.1) and Jurkat J77 (pcDNA3.1) cells and tested from cell lysates; also called full length FLAG-CD2BP2 construct
B5: CD2BP2256-332 (other)
chain: AEEELETPTPTQRGEAESRGDGLVDVMWEYKWENTGDAELYGPFTSAQMQTWVSEGYFPDGVYCRKLDPPGGQFYNS
notes: Yeast two-hybrid prey; vector fusion part not described; also called nine-residue truncation
B6: CD2BP2256-341 (yeast two-hybrid clone) (other)
chain: AEEELETPTPTQRGEAESRGDGLVDVMWEYKWENTGDAELYGPFTSAQMQTWVSEGYFPDGVYCRKLDPPGGQFYNSKRIDFDLYT
notes: Yeast two-hybrid prey in pJG4-5; vector fusion part not described; also called shortest functional clone
B7: CD2BP2 G311A (other)
chain: AEEELETPTPTQRGEAESRGDGLVDVMWEYKWENTGDAELYGPFTSAQMQTWVSEAYFPDGVYCRKLDPPGGQFYNSKRIDFDLYT
notes: Yeast two-hybrid prey
B8: CD2BP2 F313A (other)
chain: AEEELETPTPTQRGEAESRGDGLVDVMWEYKWENTGDAELYGPFTSAQMQTWVSEGYAPDGVYCRKLDPPGGQFYNSKRIDFDLYT
notes: Yeast two-hybrid prey
B9: CD2BP2 W307A (other)
chain: AEEELETPTPTQRGEAESRGDGLVDVMWEYKWENTGDAELYGPFTSAQMQTAVSEGYFPDGVYCRKLDPPGGQFYNSKRIDFDLYT
notes: Yeast two-hybrid prey
B10: CD2BP2 Y312A (other)
chain: AEEELETPTPTQRGEAESRGDGLVDVMWEYKWENTGDAELYGPFTSAQMQTWVSEGAFPDGVYCRKLDPPGGQFYNSKRIDFDLYT
notes: Yeast two-hybrid prey

Tests used:
[1] = biological target: B2; assay: yeast two-hybrid
Description: (§1) The yeast hybrid system interaction trap was used as described (Finley and Brent, Interaction Trap Cloning with Yeast (Oxford Univ. Press), NY (1995)). In brief, as bait, a human CD2 cDNA encoding the cytoplasmic segment amino acids 221-327 was transferred into the pEG202 vector. cDNAs from an activated human T cell cDNA library, CD2 binding protein 2 (CD2BP2), or mutant cDNA variants of CD2BP2 were introduced into the pJG4-5 vector between EcoRI and Xho1 restriction sites. Mutations were created by a previously described method (Higuchi et al., Nucleic Acids Res. 16:7351-7367 (1988)), and were confirmed by DNA sequencing. Both of the yeast shuttle vectors were introduced into the yeast strain EGY48, were plated onto selection plates containing glucose, and were incubated at 30° C. After 48 hours greater than 100 colonies were mixed, were transferred onto a plate containing galactose/raffinose and 5-bromo-4-chloro-3-indolyl-D-galactoside, and were incubated for 48 hours at 30° C. followed by 5 days at 8° C. The strength of the interaction was scored based on the time point when the blue color appeared in comparison with a negative control: ++++, <6 hours; +++, 12 hours: ++, <24 hours; +, <48 hours; ±, <72 hours; and −, >72 hours. CD2 mutations were generated and analyzed in a similar manner.

[2] = biological target: T1, CD2BP2129-287; assay: yeast two-hybrid
Description: as §1

[3] = biological target: T2, CD2BP2129-254; assay: yeast two-hybrid
Description: as §1

[4] = biological target: T3, CD2BP2225-341 (yeast two-hybrid clone); assay: yeast two-hybrid
Description: as §1

[5] = biological target: T4, CD2 binding protein 2 (CD2BP2); assay: yeast two-hybrid
Description: as §1

[6] = biological target: T5, human CD4 (human, UniProt P01730 26-458); assay: co-immunoprecipitation from cotransfected COS7 cells, anti-FLAG Western blot
T5 construct: whole, on cells; Control in the COS7 co-immunoprecipitation; tested in cell lysate
Method: COS7 cells were transfected with FLAG-CD2BP2 cDNA (lane 1), with FLAG-CD2BP2 and a human CD2 cDNA (lanes 2 and 3), or with FLAG-CD2BP2 and a human CD4 cDNA (lanes 4 and 5), then were lysed and immunoprecipitated with the anti-FLAG mAb M2 (lanes 3 and 5), with anti-CD2 mAb (anti-T11₁)(lanes 1 and 2), or with anti-CD4 mAb (19Thy5D7) (lane 4). Subsequently, the amount of FLAG-CD2BP2 in the immunoprecipitates was assayed by anti-FLAG mAb M2 Western blotting.
To determine whether CD2BP2 associates specifically with CD2, COS7 cells were cotransfected with FLAG-CD2BP2 and CD2 cDNA, or, as a control, CD4 cDNA. Subsequently, the CD2 protein was immunoprecipitated with anti-CD2 mAb and association with CD2BP2 examined by Western blotting with anti-FLAG mAb. […] The amount of CD2BP2 associated with CD2, however, is only a fraction of the CD2BP2 protein expressed in the COS7 cells.
As the vectors for transfection, pcDNA1.1 and pcDNA3.1 (Invitrogen) were used with COS7 and with Jurkat cells, respectively. For expression of CD2 and CD4 in COS7 cells, a pCDM8 plasmid containing each was used (Sakiharna et al, Proc. Natl. Acad. Sci. USA 92:6444-6448 (1995); Li et al., J. Mol. Biol. 263:209-226 (1996)). […]

Row | Binder | binding result [1] | also measured
1 | B1 | no binding | –
2 | B2 | – | binding result [2]: no binding; binding result [3]: no binding; binding result [4]: binds
3 | B3 | – | binding result [5]: no binding
4 | B4 | – | binding result [6]: no binding
5 | B5 | no binding | –
6 | B6 | binds | –
7 | B7 | no binding | –
8 | B8 | no binding | –
9 | B9 | no binding | –
10 | B10 | no binding | –

Source: patent publication US20020127657A1 (Dana-Farber, published 2002)
